Consider six molecules from paper PMC8440666, “Allosteric modulation of LRRC8 channels by targeting their cytoplasmic domains” (Nature Communications, 2021).

For orientation: Kd means the free concentration of one partner at which half of the binding sites on the other are occupied at equilibrium, for simple one-to-one binding. A higher Kd goes with a looser complex. Broadly, the koff is the first-order rate constant of dissociation. A lower koff goes with a long-lived complex. One may read the stoichiometry N as the number of molecules, sites or subunits per partner or assembly.

The target of test [1] is T1, LRR domain of LRRC8A (soluble cytoplasmic leucine-rich repeat domain of mouse LRRC8A) (Mus musculus, UniProt Q80WG5, chemically biotinylated with amine-reactive NHS-PEG4-Biotin for ELISA and SPR).
T1 construct: LRR domain of mouse LRRC8A, residues 398-810 of NP_808393.1; Used without biotin in SEC and biotinylated in SPR and ELISA; also called LRRC8A-cytosolic domain (LRR); LRRC8A-LRR domain; not shown: SBP, N-terminal, cleaved; myc, N-terminal, cleaved
Kind of test: SPR; Biacore T100; chemically biotinylated LRR domain immobilised on streptavidin chip (~100 RU), sybody as analyte; 20 °C, 10 mM HEPES pH 7.4, 150 mM NaCl, 0.5 mM EDTA, 0.05% Tween 20; multi-cycle kinetics (Sb1, Sb3, Sb4, Sb5) or single-cycle kinetics (Sb2); 1:1 binding model. Particulars: both partners purified. For orientation: SPR reads the build-up and loss of mass on a sensor chip optically.

Test [2] has as its target T2, full-length murine LRRC8A (homomeric hexameric channel) (mouse, UniProt Q80WG5).
T2 construct: full-length mouse LRRC8A (NP_808393.1); For patch clamp it was expressed from a vector without mCherry in LRRC8-/- HEK293 cells; also called homomeric LRRC8A channel; not shown: mCherry, C-terminal, cleaved; myc, C-terminal, cleaved; SBP, C-terminal, cleaved
Kind of test: cryo-EM structure; sybody added to purified full-length LRRC8A at a molar ratio sybody/LRRC8A monomer of 1.25-1.5 (0.5 for Sb4_(0.5)), no further chromatography; C3 symmetry imposed. Particulars: both partners purified.

The target in test [3] is T2, full-length murine LRRC8A (homomeric …). The test is described as follows: cell-based or functional assay.
In test [4] the target is T3, full-length murine LRRC8A (homomeric hexameric channel) (mouse), Q80WG5.
T3 chain: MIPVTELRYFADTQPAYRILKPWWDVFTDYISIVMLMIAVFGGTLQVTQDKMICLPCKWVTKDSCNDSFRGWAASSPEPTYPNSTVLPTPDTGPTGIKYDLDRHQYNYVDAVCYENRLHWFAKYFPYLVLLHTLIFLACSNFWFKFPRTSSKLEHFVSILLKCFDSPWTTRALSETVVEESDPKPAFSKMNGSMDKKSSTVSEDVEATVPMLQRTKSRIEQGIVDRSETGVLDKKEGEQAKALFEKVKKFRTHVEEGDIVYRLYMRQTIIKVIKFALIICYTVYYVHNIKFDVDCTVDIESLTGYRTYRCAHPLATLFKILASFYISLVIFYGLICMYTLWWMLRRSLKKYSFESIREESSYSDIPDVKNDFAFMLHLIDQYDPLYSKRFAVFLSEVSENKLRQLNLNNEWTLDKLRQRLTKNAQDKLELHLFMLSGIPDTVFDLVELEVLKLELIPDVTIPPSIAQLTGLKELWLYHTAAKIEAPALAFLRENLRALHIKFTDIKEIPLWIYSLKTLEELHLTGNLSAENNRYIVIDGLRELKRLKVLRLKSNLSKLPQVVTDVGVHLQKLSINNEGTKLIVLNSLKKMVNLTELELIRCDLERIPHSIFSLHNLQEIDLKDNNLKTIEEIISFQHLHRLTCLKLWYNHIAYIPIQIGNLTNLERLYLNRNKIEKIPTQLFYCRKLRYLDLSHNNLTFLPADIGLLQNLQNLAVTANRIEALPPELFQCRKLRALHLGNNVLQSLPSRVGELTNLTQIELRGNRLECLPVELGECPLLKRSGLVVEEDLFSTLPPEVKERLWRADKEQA
Kind of test: cryo-EM structure; sybody added to purified full-length LRRC8A at a molar ratio sybody/LRRC8A monomer of 1.25-1.5 (0.5 for Sb4_(0.5)), no further chromatography; C3 symmetry imposed. Particulars: remark: other sources report otherwise.

Where “and” joins values, the source holds several entries; their conditions need not be identical. Equal entries are not always repeated.

B1: sybody Sb1^LRRC8A (VHH)
VHH: QVQLVESGGGLVQAGGSLRLSCAASGFPVGRHFMYWYRQAPGKEREWVAAIYSYGEYTEYADSVKGRFTISRDNAKNTVYLQMNSLKPEDTAVYYCYVYVGNEYWGQGTQVTVSA
notes: residues 1-116 modelled; concave library; Synthetic nanobody selected by ribosome and phage display against full-length LRRC8A; N-terminal pelB leader for periplasmic expression; For electrophysiology also expressed in HEK293 cells with C-terminal Venus-myc-SBP; source: E. coli MC1061, periplasmic expression, purified (Ni-NTA, SEC on Superdex 75)
Take B1: in test [1], the dissociation constant Kd is 24 nM and 22 nM; the koff is 0.03 s⁻¹ and 0.037 s⁻¹. In test [2], the “stoichiometry N” value is 6 sybodies per hexameric channel. Moreover, the “current density of endogenous VRAC in HEK293 cells, whole-cell patch clamp, 125 mM intracellular salt, 1 µM Sb1 in the pipette solution” value in test [3] is around 4 fold reduction.

B2: sybody Sb5^LRRC8A (VHH)
VHH: QVQLVESGGGLVQAGGSLRLSCAASGFPVAQEIMTWYRQAPGKEREWVAAISSIGDTTAYADSVKGRFTISRDNAKNTVYLQMNSLKPEDTAVYYCAVNVGFTYKGQGTQVTVSA
notes: concave library; Synthetic nanobody selected by ribosome and phage display against full-length LRRC8A; For electrophysiology expressed in HEK293 cells with C-terminal Venus-myc-SBP; source: E. coli MC1061, periplasmic expression, purified (Ni-NTA, SEC on Superdex 75)
Take B2: in test [1], the dissociation constant Kd was 175 nM and 170 nM; the koff is 0.199 s⁻¹ and 0.242 s⁻¹. For the same molecule, in test [3], the “endogenous VRAC current density in HEK293 cells expressing Sb5 compared to non-transfected cells, whole-cell patch clamp, 125 mM (about 50% increase) and 175 mM intracellular salt” value was around 2.3 fold increase.

B3: sybody Sb2^LRRC8A (VHH)
VHH: QVQLVESGGGLVQAGGSLRLSCAASGFPVYQAWMWWYRQAPGKEREWVAAIESEGQYTWYADSVKGRFTISRDNAKNTVYLQMNSLKPEDTAVYYCNVKDTGHTTNQYDYWGQGTQVTVSA
notes: loop library; Synthetic nanobody selected by ribosome and phage display against full-length LRRC8A; For electrophysiology expressed in HEK293 cells with C-terminal Venus-myc-SBP; source: E. coli MC1061, periplasmic expression, purified (Ni-NTA, SEC on Superdex 75)
As for B3, in test [1], the Kd is 35 nM and 60 nM; the koff worked out at 0.003 s⁻¹. Besides, the “stoichiometry N” value in test [2] was 6 sybodies per hexameric channel.

B4: full-length murine LRRC8A (homomeric hexameric channel), Q80WG5 1-810 (natural protein)
chain: T3 chain
For the molecule B4, the stoichiometry N in test [4] was found to be 6 subunits.

B5: sybody Sb3^LRRC8A (VHH)
VHH: QVQLVESGGGLVQAGGSLRLSCAASGFPVMNAGMYWYRQAPGKEREWVAAIESEGTSTYYADSVKGRFTISRDNAKNTVYLQMNSLKPEDTAVYYCNVKDVGDNHFPYDYWGQGTQVTVSA
notes: residues 1-120 modelled; loop library; Synthetic nanobody selected by ribosome and phage display against full-length LRRC8A; For electrophysiology expressed in HEK293 cells with C-terminal Venus-myc-SBP; source: E. coli MC1061, periplasmic expression, purified (Ni-NTA, SEC on Superdex 75)
As to B5, in test [1], the Kd is 800 nM and 913 nM; the off-rate constant (koff) is 0.104 s⁻¹ and 0.113 s⁻¹. For the same molecule, the “stoichiometry N” value in test [2] is 6 sybodies per hexameric channel.

B6: sybody Sb4^LRRC8A (VHH)
VHH: QVQLVESGGGSVQAGGSLRLSCAASGYIYQIEYLGWFRQAPGKEREGVAALATWNGQTYYADSVKGRFTVSLDNAKNTVYLQMNSLKPEDTALYYCAAAYEGDTSPLYYEEYGYWGQGTQVTVSA
notes: convex library; Synthetic nanobody selected by ribosome and phage display against full-length LRRC8A; For electrophysiology expressed in HEK293 cells with C-terminal Venus-myc-SBP; source: E. coli MC1061, periplasmic expression, purified (Ni-NTA, SEC on Superdex 75)
Turning to B6, in test [1], the Kd is 27 nM and 17 nM; the off-rate constant (koff) is 0.064 s⁻¹. For the same molecule, the “endogenous VRAC current density in HEK293 cells expressing Sb4 compared to non-transfected cells, whole-cell patch clamp, 125 mM (about 50% increase) and 175 mM intracellular salt” value in test [3] is around 5 fold increase.
